Results: patent publication US20220280440A1, “METHOD FOR THE MANUFACTURE OF A DOSAGE FORM WITH MUCOADHESIVE PROPERTIES FOR BUCCAL ADMINISTRATION OF BIOLOGICS” (UNIVERSIDAD DE CHILE, priority 2016, published 2022)

Assays:
[1] = FTIR of lysozyme inks with or without glycerol; format: physicochemical; settings: FIG. 13
Description: On the other hand, since these inks require the addition of glycerol as a viscosity agent, the evaluation of lysozyme inks was performed with or without glycerol by infrared spectroscopy Fourier transform (FTIR).

[2] = Effect of the inkjet printing process on nanosystems (properties before and after printing on inert substrate); format: physicochemical; settings: lysozyme in nanoparticles
Description: The process of printing on an inert substrate using a suspension with a nanosystem as carriers of biologic drug models was performed using polymeric nanoparticles. The suspension was incorporated into a cartridge for inkjet printing. The particle properties were measured before and after the printing process. […] Results are expressed as means (standard deviation). Except for an increase in the polydispersity index (PDI), the particles maintain their properties during the printing process and define the methodology for incorporating drug loaded nanoparticles on polymer films.
The obtained printing inks with lysozyme or insulin were loaded into Hewlett Packard cartridges compatible with Hewlett Packard Deskjet 1000 printer, and it was installed to run the printing experiments. Using a commercial software tool appropriate for the task, surfaces of 3×3 cm^2 were printed on an inert substrate to evaluate the effect of the printing process on the polymeric nanoparticles. After the printing process, the printed polymeric nanoparticles were recovered by refluxing with 1 mL of Milli-Q® water, and their physicochemical properties in terms of size, polydispersity index, and zeta potential were determined.

In the case of lysozyme, the “Major bands of the FTIR spectra, ink with or without glycerol” value [1] is reported as “does not change during the process” and the “Amount immobilized at the particle and biologic structure during the printing process (load and protein activity studies)” value [2] is reported as “preserved during the printing process”.
